According to publication PMC5947639:

Key:
[1] = target: MafR_(V583), untagged MafR protein from Enterococcus faecalis V583 (Enterococcus faecalis V583); test: AUC
[2] = target: MafR_(V583), untagged MafR protein from Enterococcus faecalis V583 (Enterococcus faecalis V583); test: SEC

Substance: MafR_(V583), untagged MafR protein from Enterococcus faecalis V583 (natural protein)
- stoichiometry N [1]: 2
- stoichiometry N [2]: 2
